{"source": "the supplement of paper PMC10266784", "parents": {"B1": {"name": "library; numbered along this chain (parent)", "chain": "MAAAAAAAAEQQSSNGPVKKSMREKAVERRSVNKEHNSNFKAGYIPIDEDRLHKTGLRGRKGNLAICVIILLFILAVINLIITLVIWAVIRIGPNGCDSMEFHESGLLRFKQVSDMGVIHPLYKSTVGGRRNENLVITGNNQPIVFQQGTTKLSVENNKTSITSDIGMQFFDPRTQNILFSTDYETHEFHLPSGVKSLNVQKASTERITSNATSDLNIKVDGRAIVRGNEGVFIMGKTIEFHMGGNMELKAENSIILNGSVMVSTTRLPSSSSGDQLGSGDWVRYKLCMCADGTLFKVQVTSQNMGCQISDNPCGNTH"}}, "data": [{"variants_of": "B1", "test": "SGCB cell-surface expression functional score (HA stain, bin4 vs bin1, normalised to synonymous) (log10 ratio); higher = more cell-surface SGCB (functional)", "method": "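Deep mutational scan of full-length human SGCB (YFP-SGCB-HA, NNN codon sublibraries A-F) delivered by lentivirus at low MOI into ADG-HEK293 cells stably expressing SGCA, SGCD and SGCG. YFP-positive cells were stained for surface HA on unpermeabilized cells and FACS-sorted into bins. The functional score is log10(frequency in high bin 4 / frequency in low bin 1), normalised per chunk so that synonymous variants have mean 0 and SD 0.5. Scores are the median over codons and over duplicate biological replicates; scores below -0.5 are called non-functional. Scale: negative means deleterious.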", "values": [{"variant": "MAAAAAAAAEQQSSNGPVKKSMREKAVERRSVNKEHNSNFKAGYIPIDEDRLHKTGLRGRKGNLAICVIILLFILAVINLIITLVIWAVIRIGPNGCDSMEFHESGLLRFKQVSDMGCIHPLYKSTVGGRRNENLVITGNNQPIVFQQGTTKLSVENNKTSITSDIGMQFFDPRTQNILFSTDYETHEFHLPSGVKSLNVQKASTERITSNATSDLNIKVDGRAIVRGNEGVFIMGKTIEFHMGGNMELKAENSIILNGSVMVSTTRLPSSSSGDQLGSGDWVRYKLCMCADGTLFKVQVTSQNMGCQISDNPCGNTH", "note": "[V118C]", "SGCB cell-surface expression functional score (log10)": 0.74}, {"variant": "MAAAAAAAAEQQSSNGPVKKSMREKAVERRSVNKEHNSNFKAGYIPIDEDRLHKTGLRGRKGNLAICVIILLFILAVINLIITLVIWAVIRIGPNGCDSMEFHESGLLRFKQVSDMGVIHPLYKSTVGGRRNENLVITGNNQPIVFQQGTTKLSVENNKTSITSDIGMQFFDPRTQNILFSTDYETHEFHLPSGVKSLNVQKASTERITSPATSDLNIKVDGRAIVRGNEGVFIMGKTIEFHMGGNMELKAENSIILNGSVMVSTTRLPSSSSGDQLGSGDWVRYKLCMCADGTLFKVQVTSQNMGCQISDNPCGNTH", "note": "[N211P]", "SGCB cell-surface expression functional score (log10)": -0.12}, {"variant": "MAAAAAAAAEQQSSNGPVKKSMREKAVERRSVNKEHNSNFKAGYIPIDEDRLHKTGLRGRKGNLAICVIILLFILAVINLIITLVIWAVIRIGPNGCDSMEFHESGLLRFKQVSDMGVIHPLYKSTVGGRRNENLVITGNNQPIVFQQGTTKLSVENNKTSITSDIGMQFFDPRTQNILFSTDYETHEFHLPSGVKSLNVQKASTERITSNATSDLNIKVDGRAIVRGNEGVFIMGKTIEFHMGGNMELKAENSIILNGSVMVSTTRLPSSSSGDQLGSGDWVRYKLDMCADGTLFKVQVTSQNMGCQISDNPCGNTH", "note": "[C288D]", "SGCB cell-surface expression functional score (log10)": 0.01}, {"variant": "MAAAAAAAAEQQSSNGPVKKSMREKAVERRSVNKEHNSNFKAGYIPIDEDRLHKTGLRGRKGNLAICVIILLFILAVINLIITLVIWAVIRIGPNGCDSMEFHESGLLRFKQVSDMGVIHPLYKSTVGGRRNENLVITGNNQPIVFQQGTTKLSVENNKTSITSDIGMQFFDPRTQNILFSTDYETHEFHLPSGVKSLNVQKASTERITSNATSDLNIKVDGRAIVRGNEGVFIMGKTIEFHMGGNMELKAENSIILNGSVMVSTTRLPSSSSGDQLGSGDWVRYKLCMCADGTLFKVQVTSQNMGCQISDYPCGNTH", "note": "[N312Y]", "SGCB cell-surface expression functional score (log10)": 0.54}, {"variant": "MAAAAAAAAEQQSSNGPVKKSMREKAVERRSVNKEHNSNFKAGYIPIDEDRLHKTGLRGRKGNLAICVIILLFILAVINLIITLVIWAVIRIGPNGCDSMEFHESGLLRFKQVSDMGVIHPLYKSTVGGRRNENLVITGNNQPIVFQQGTTKLSVENNKTSITSDIGMQFFDPRTQNILFSTDYETHEFHLESGVKSLNVQKASTERITSNATSDLNIKVDGRAIVRGNEGVFIMGKTIEFHMGGNMELKAENSIILNGSVMVSTTRLPSSSSGDQLGSGDWVRYKLCMCADGTLFKVQVTSQNMGCQISDNPCGNTH", "note": "[P192E]", "SGCB cell-surface expression functional score (log10)": -1.13}, {"variant": "MAAAAAAAAEQQSSNGPVKKSNREKAVERRSVNKEHNSNFKAGYIPIDEDRLHKTGLRGRKGNLAICVIILLFILAVINLIITLVIWAVIRIGPNGCDSMEFHESGLLRFKQVSDMGVIHPLYKSTVGGRRNENLVITGNNQPIVFQQGTTKLSVENNKTSITSDIGMQFFDPRTQNILFSTDYETHEFHLPSGVKSLNVQKASTERITSNATSDLNIKVDGRAIVRGNEGVFIMGKTIEFHMGGNMELKAENSIILNGSVMVSTTRLPSSSSGDQLGSGDWVRYKLCMCADGTLFKVQVTSQNMGCQISDNPCGNTH", "note": "[M22N]", "SGCB cell-surface expression functional score (log10)": 0.39}, {"variant": "MAAAAAAAAEQQSSNGPVKKSMREKAVERRSVNKEHNSNFKAGYIPIDEDRLHKTGLRGRKGNLAICVIILLFILAVINLIITLVIWAVIRIGPNGCDSMEFHESGLLRFKQVSDMGVIHPLYKSTVGGRRNENLVITGNNQPIVFQQGTTKLSVENNKTSITSDIGMQFFDPRTQNILFSTDYETHEFHLPSGVKSLNVQYASTERITSNATSDLNIKVDGRAIVRGNEGVFIMGKTIEFHMGGNMELKAENSIILNGSVMVSTTRLPSSSSGDQLGSGDWVRYKLCMCADGTLFKVQVTSQNMGCQISDNPCGNTH", "note": "[K202Y]", "SGCB cell-surface expression functional score (log10)": -0.69}, {"variant": "MAAAAAAAAEQQSSNGPVKKSMREKAVERRSVNKEHNSNFKAGYIPIDEDRLHKTGLRGRKGNLAICVIILLFILAVINLIITLVIWAVIRIGPNGCDSMEFHESGLLRFKQVSDMGVIHPLYKSTVGGRRNENLVITGNNQPIVFQQGTTKLSVENNKTSITSDIGMQFFDPRTQNILFSTDYETHEFHQPSGVKSLNVQKASTERITSNATSDLNIKVDGRAIVRGNEGVFIMGKTIEFHMGGNMELKAENSIILNGSVMVSTTRLPSSSSGDQLGSGDWVRYKLCMCADGTLFKVQVTSQNMGCQISDNPCGNTH", "note": "[L191Q]", "SGCB cell-surface expression functional score (log10)": -1.1}, {"variant": "MAAAAAAAAEQQSSNGPVKKSMREKAVERRSVNKEHNSNFKAGYIPIDEDRLHKTGLRGRKGNLAICVIILLFILAVINLIITLVIWAVIRIGPNGCDSMEFHESGLLRFKQVSDMGVIHPLYKSTVGGRRNENLVITGNNQPIVFQQGTTKLSVENNKTSITSDIGMQFFDPRTQNILFSTDYETHEFHLPSGVKSLNVQKASTERITSNATSDLNIKVDGRAIVRGNEGVFIMGKTIEFHMGGNMELKAENSIILNGSVMVSTTRLPSSSSGDQLGSGDSVRYKLCMCADGTLFKVQVTSQNMGCQISDNPCGNTH", "note": "[W282S]", "SGCB cell-surface expression functional score (log10)": -0.06}]}]}
